Experimental data reported in the supplement of paper PMC7877785.
± gives the uncertainty stated by the source.

Experiment: self-splicing fitness, log relative to wild type (ln ratio); higher = more splicing; Tetrahymena group I intron in knt gene, E. coli kanamycin selection, DiMSum; sequences stand for … in CUCUCU…GGAGGGAAAAGUUAUCAGGCAUGCACCUGGUAGCUAGUCUUUAAACCAAUAGAUUGCAUCGGUUUAAAAGGCAAGACCGUCAAAUUGCGGGAAAGGGGUCAACAGCCGUUCAGUACCAAGUCUCAGGGGAAACUUUGAGAUGGCCUUGCAAAGGGUAUGGUAAUAAGCUGACGGACAUGGUCCUAACCACGCAGCCAAGUCCUAAGUCAACAGAUCUUCUGUUGAUAUGGAUGCAGUUCACAGACUAAAUGUCGGUCGGGGAAGAUGUAUUCUUCUCAUAAGAUAUAGUCGGACCUCUCCUUAAUGGGAGCUAGCGGAUGAAGUGAUGCAACACUGGAGCCGCUGGGAACUAAUUUGUAUGCGAAAGUAUAUUGAUUAGUUUUGGAGUACUCGUGGUCG
How it was run: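 Library with all eight P1ex-region intron nucleotides randomised, intron inside the knt kanamycin-resistance gene on pET-22b(+), in E. coli BL21(DE3). Cells grew overnight at 37°C or 30°C on LB agar with or without 25 μg/mL kanamycin (plus 100 μg/mL carbenicillin, 50 μM IPTG, 0.2% rhamnose), in six replicate transformations. Pooled colonies were amplicon-sequenced on Illumina HiSeq 2500. DiMSum fitness is the error-weighted combination of wild-type-normalised replicate fold changes, kanamycin versus none.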

| Sequence | self-splicing fitness (ln) (30 °C) | self-splicing fitness (ln) (37 °C) |
| --- | --- | --- |
| AGUGAGCAAUAUUACGCAUA | -4.2 ± 0.43 | -2.56 ± 0.29 |
| GCGAAGCAAUAUUACGUGUC | -4.67 ± 0.46 | -3.21 ± 0.33 |
| AUACAGCAAUAUUACGGUCG | -1.08 ± 0.068 | -0.545 ± 0.094 |
| GUCGAGCAAUAUUACGACGA | -3.05 ± 0.35 | -1.28 ± 0.21 |
| UCCGAGCAAUAUUACGACAG | -3.18 ± 0.3 | -2.55 ± 0.3 |
| AGCUAGCAAUAUUACGACAC | -2.07 ± 0.15 | -1.11 ± 0.16 |
| CAUAAGCAAUAUUACGUACA | -3.09 ± 0.36 | -2.37 ± 0.19 |
| GUAGAGCAAUAUUACGAUAG | -2.06 ± 0.15 | -1.42 ± 0.14 |
| UAAAAGCAAUAUUACGCACG | -0.983 ± 0.079 | -0.0988 ± 0.1 |
| AGUCAGCAAUAUUACGUUAC | -2.88 ± 0.16 | -2.36 ± 0.21 |
| CUUUAGCAAUAUUACGCCAG | -1.65 ± 0.28 | -0.616 ± 0.28 |
| CUACAGCAAUAUUACGACAU | -3.878 ± 0.021 | -2.67 ± 0.037 |
| CUUGAGCAAUAUUACGGAAC | -2.25 ± 0.2 | -2.61 ± 0.33 |
| CCUCAGCAAUAUUACGAAAU | -3.99 ± 0.28 | -2.15 ± 0.34 |
| UUCUAGCAAUAUUACGUGGG | -3.08 ± 0.16 | -2.39 ± 0.15 |
| UGAUAGCAAUAUUACGUUUA | -2.2 ± 0.12 | -0.742 ± 0.1 |
| UGGAAGCAAUAUUACGGGGG | -2.52 ± 0.32 | -2.89 ± 0.49 |
| CAAUAGCAAUAUUACGGGGG | -2.64 ± 0.19 | -2.01 ± 0.15 |
| CUUCAGCAAUAUUACGCAAC | -2.86 ± 0.21 | – |
| AGCGAGCAAUAUUACGCCUU | -1.94 ± 0.25 | -2.62 ± 0.48 |
| GUUAAGCAAUAUUACGUACG | -1.83 ± 0.14 | -0.662 ± 0.14 |
| UAUCAGCAAUAUUACGAAGU | -2.82 ± 0.28 | -0.868 ± 0.29 |

| Sequence | self-splicing fitness (ln) (30 °C) | self-splicing fitness (ln) (37 °C) |
| --- | --- | --- |
| CUCAAGCAAUAUUACGUGCA | -3.43 ± 0.26 | -1.85 ± 0.19 |
| GAGCAGCAAUAUUACGCCUA | -0.758 ± 0.064 | 0.0984 ± 0.085 |
| CGUGAGCAAUAUUACGACGA | -1.92 ± 0.12 | -0.885 ± 0.12 |
| AAUGAGCAAUAUUACGUUUG | -4.24 ± 0.2 | -2.33 ± 0.19 |
| AAGAAGCAAUAUUACGCAAG | -2.01 ± 0.13 | -1.15 ± 0.13 |
| UUUAAGCAAUAUUACGCCUU | -0.228 ± 0.34 | -1.35 ± 0.36 |
| CUCCAGCAAUAUUACGCAGU | -3.59 ± 0.21 | -2.04 ± 0.23 |
| GCUCAGCAAUAUUACGACAU | -0.812 ± 0.012 | -0.159 ± 0.032 |
| UGGUAGCAAUAUUACGUGUC | -2.13 ± 0.46 | – |
| AUUUAGCAAUAUUACGUCAU | -1.76 ± 0.1 | -0.485 ± 0.1 |
| UGCAAGCAAUAUUACGGGCU | -1.12 ± 0.11 | -1.48 ± 0.14 |
| CUCAAGCAAUAUUACGUCAA | -4.09 ± 0.35 | -2.31 ± 0.19 |
| GACGAGCAAUAUUACGUGCU | -2.92 ± 0.19 | -2.4 ± 0.23 |
| AAUUAGCAAUAUUACGUCCU | -0.344 ± 0.11 | 0.561 ± 0.16 |
| ACGCAGCAAUAUUACGAUUC | -2.28 ± 0.085 | -1.43 ± 0.096 |
| GUGUAGCAAUAUUACGGCCU | -0.169 ± 0.073 | 0.685 ± 0.098 |
| GCGGAGCAAUAUUACGUACC | -3.69 ± 0.36 | -0.124 ± 0.43 |
| UGCCAGCAAUAUUACGAUUG | -1.63 ± 0.078 | -0.196 ± 0.086 |
| CGAGAGCAAUAUUACGUAGA | -1.62 ± 0.2 | -1.68 ± 0.3 |
| UGAGAGCAAUAUUACGUCGG | -2.21 ± 0.2 | -1.77 ± 0.31 |
| GGGGAGCAAUAUUACGUAUG | – | -1.58 ± 0.31 |
